According to paper PMC9482650, “Quantitative fragmentomics allow affinity mapping of interactomes” (Nature Communications, 2022):

Columns and labels:
Assay in all cases: holdup assay
Parameters in all cases: key: below the threshold = too weak to quantify, mostly under pKd 3.1 to 4
Settings in all cases: plain residues with an end cap or a label only (N-terminal biotin on a linker: ado-ado)
DLG2_3, Q15700 = biological target: DLG2_3, Q15700
NHERF3_1, Q5T2W1 = biological target: T1, NHERF3_1, Q5T2W1
T1 sequence (Q5T2W1 4-100, limits assumed, looked up): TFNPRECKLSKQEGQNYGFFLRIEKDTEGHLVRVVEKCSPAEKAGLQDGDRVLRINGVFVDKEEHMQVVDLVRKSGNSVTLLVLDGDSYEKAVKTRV

TJP3_3, O95049 = biological target: T2, TJP3_3, O95049
T2 sequence (O95049 375-456, limits assumed, looked up): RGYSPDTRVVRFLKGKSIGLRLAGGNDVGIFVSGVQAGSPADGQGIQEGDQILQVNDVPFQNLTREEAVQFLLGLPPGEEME

RHPN1, Q8TCX5 = biological target: T3, RHPN1, Q8TCX5
T3 sequence (Q8TCX5 508-602, limits assumed, looked up): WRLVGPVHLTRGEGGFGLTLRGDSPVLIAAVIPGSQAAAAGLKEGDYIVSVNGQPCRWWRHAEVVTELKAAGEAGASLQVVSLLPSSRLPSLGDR

RADIL, Q96JH8 = biological target: T4, RADIL, Q96JH8
T4 sequence (Q96JH8 971-1071, limits assumed, looked up): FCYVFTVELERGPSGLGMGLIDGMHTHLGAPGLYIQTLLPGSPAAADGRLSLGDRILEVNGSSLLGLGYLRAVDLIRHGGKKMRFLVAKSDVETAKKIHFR

SNTG1, Q9NSN8 = biological target: T5, SNTG1, Q9NSN8
T5 sequence (Q9NSN8 52-150, limits assumed, looked up): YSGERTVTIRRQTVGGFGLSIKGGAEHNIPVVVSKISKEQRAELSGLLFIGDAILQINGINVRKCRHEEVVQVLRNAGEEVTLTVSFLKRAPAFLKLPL

IL16_4, Q14005 = biological target: IL16_4, Q14005
ARHGEF12, Q9NZN5-2 = biological target: ARHGEF12, Q9NZN5-2
NHERF3_3, Q5T2W1 = biological target: T6, NHERF3_3, Q5T2W1
T6 sequence (Q5T2W1 238-333, limits assumed, looked up): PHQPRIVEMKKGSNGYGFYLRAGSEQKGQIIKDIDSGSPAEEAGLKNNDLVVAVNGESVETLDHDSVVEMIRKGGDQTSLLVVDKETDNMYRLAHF

DLG2_2, Q15700 = biological target: DLG2_2, Q15700
TJP1_2, Q07157 = biological target: TJP1_2, Q07157
HTRA1, Q92743 = biological target: HTRA1, Q92743
CASK, O14936 = biological target: CASK, O14936
Inadl_10, Q8NI35 = biological target: Inadl_10, Q8NI35
Inadl_2, Q8NI35 = biological target: Inadl_2, Q8NI35
GRIP1_2, Q9Y3R0 = biological target: T7, GRIP1_2, Q9Y3R0
T7 sequence (Q9Y3R0 145-248, limits assumed, looked up): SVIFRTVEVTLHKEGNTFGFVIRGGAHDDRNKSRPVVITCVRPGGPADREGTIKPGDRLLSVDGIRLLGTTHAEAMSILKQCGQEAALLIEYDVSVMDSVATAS

LIN7C, Q9NUP9 = biological target: T8, LIN7C, Q9NUP9
T8 sequence (Q9NUP9 88-185, limits assumed, looked up): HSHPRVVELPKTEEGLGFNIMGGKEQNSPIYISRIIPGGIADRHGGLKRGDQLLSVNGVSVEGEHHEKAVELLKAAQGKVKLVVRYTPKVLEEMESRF

GRIP1_3, Q9Y3R0 = biological target: T9, GRIP1_3, Q9Y3R0
T9 sequence (Q9Y3R0 247-346, limits assumed, looked up): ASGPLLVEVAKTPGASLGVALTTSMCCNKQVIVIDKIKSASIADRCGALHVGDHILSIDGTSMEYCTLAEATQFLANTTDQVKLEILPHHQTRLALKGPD

APBA2_1, Q99767 = biological target: T10, APBA2_1, Q99767
T10 sequence (Q99767 563-664, limits assumed, looked up): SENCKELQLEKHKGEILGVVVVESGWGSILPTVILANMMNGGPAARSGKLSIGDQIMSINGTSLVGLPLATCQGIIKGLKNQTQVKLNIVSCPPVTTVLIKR

LNX1_2, Q8TBB1 = biological target: LNX1_2, Q8TBB1
PDZRN4_1, Q6ZMN7 = biological target: PDZRN4_1, Q6ZMN7
MAGI1_1, Q96QZ7 = biological target: MAGI1_1, Q96QZ7
ARHGEF11, O15085 = biological target: T11, ARHGEF11, O15085
T11 sequence (O15085 42-136, limits assumed, looked up): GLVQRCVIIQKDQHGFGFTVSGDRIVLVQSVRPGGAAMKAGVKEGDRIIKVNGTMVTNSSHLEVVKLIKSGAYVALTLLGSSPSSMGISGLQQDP

GRIP2_6, Q9C0E4 = biological target: GRIP2_6, Q9C0E4
GRID2IP_1, A4D2P6 = biological target: GRID2IP_1, A4D2P6
SYNJ2BP, P57105 = biological target: T12, SYNJ2BP, P57105
T12 sequence (P57105 8-110, limits assumed, looked up): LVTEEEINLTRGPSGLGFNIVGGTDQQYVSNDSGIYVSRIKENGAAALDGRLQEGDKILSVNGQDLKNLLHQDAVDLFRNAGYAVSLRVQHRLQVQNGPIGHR

Measured: pKd

IL16_4, Q14005, sequence (Q14005 1229-1329): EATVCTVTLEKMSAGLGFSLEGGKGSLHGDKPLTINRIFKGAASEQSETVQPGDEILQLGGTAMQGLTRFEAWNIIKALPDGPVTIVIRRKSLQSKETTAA
ARHGEF12, Q9NZN5-2, sequence (Q9NZN5 other isoform, or with tags, fused parts or gaps): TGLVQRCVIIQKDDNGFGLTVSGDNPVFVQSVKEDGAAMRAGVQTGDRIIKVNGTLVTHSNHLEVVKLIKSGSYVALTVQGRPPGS
CASK, O14936, sequence (O14936 487-570): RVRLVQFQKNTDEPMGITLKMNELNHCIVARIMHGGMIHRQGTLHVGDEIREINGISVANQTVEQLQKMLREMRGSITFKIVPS
Inadl_2, Q8NI35, sequence (Q8NI35 238-335): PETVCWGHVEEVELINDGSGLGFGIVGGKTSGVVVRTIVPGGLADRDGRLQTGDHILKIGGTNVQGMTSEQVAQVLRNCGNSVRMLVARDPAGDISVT
HTRA1, Q92743, sequence (Q92743 360-477): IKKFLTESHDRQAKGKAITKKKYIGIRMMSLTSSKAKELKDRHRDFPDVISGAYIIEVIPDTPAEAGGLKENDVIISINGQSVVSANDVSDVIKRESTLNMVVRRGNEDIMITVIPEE
GRID2IP_1, A4D2P6, sequence (A4D2P6 1-87): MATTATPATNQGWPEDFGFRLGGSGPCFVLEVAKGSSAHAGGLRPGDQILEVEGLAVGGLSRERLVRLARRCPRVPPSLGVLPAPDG
TJP1_2, Q07157, sequence (Q07157 181-274): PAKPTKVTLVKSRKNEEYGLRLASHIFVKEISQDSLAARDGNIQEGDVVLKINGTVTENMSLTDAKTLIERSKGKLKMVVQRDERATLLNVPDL
Inadl_10, Q8NI35, sequence (Q8NI35 1673-1763): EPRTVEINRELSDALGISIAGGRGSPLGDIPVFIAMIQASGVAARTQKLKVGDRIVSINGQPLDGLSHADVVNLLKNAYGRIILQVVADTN
MAGI1_1, Q96QZ7, sequence (Q96QZ7 1-106): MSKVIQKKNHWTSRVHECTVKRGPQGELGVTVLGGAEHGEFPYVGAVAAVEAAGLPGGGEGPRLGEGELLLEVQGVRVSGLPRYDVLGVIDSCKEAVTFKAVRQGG
PDZRN4_1, Q6ZMN7, sequence (Q6ZMN7 213-318): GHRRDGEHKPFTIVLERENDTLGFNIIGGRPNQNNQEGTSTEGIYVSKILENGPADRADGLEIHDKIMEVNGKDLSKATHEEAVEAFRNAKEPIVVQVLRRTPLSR
LNX1_2, Q8TBB1, sequence (Q8TBB1 371-470): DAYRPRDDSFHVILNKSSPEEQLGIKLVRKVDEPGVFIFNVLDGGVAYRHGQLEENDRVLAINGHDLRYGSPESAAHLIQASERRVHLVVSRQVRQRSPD
GRIP2_6, Q9C0E4, sequence (Q9C0E4 648-740): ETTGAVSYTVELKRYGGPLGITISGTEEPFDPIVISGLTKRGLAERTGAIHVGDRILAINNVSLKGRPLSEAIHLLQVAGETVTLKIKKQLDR

GQETPLNTFC [MAP7D2, Q96T17]
3.79: HTRA1, Q92743
4.26: NHERF3_1, Q5T2W1
3.77: ARHGEF12, Q9NZN5-2
below the threshold: all other assays above

LGHTPFVDEL [UQCRC2, P22695]
3.66: RADIL, Q96JH8
3.79: ARHGEF11, O15085
3.97: HTRA1, Q92743
4.73: NHERF3_1, Q5T2W1
4: SYNJ2BP, P57105
3.59: IL16_4, Q14005
below the threshold: all other assays above

QYPGSPDSWV [PKP4, Q99569]
4.86: TJP3_3, O95049
4.89: RADIL, Q96JH8
3.94: LIN7C, Q9NUP9
4.03: DLG2_2, Q15700
3.54: ARHGEF12, Q9NZN5-2
3.78: LNX1_2, Q8TBB1
4.06: PDZRN4_1, Q6ZMN7
4.26: RHPN1, Q8TCX5
4.57: SNTG1, Q9NSN8
3.76: TJP1_2, Q07157
3.51: GRIP2_6, Q9C0E4
4.94: SYNJ2BP, P57105
3.74: CASK, O14936
3.75: Inadl_10, Q8NI35
4.78: HTRA1, Q92743
below the threshold: all other assays above

DFRHKSSFVI [JAM3, Q9BX67]
4.05: GRIP2_6, Q9C0E4
4.64: HTRA1, Q92743
3.52: DLG2_3, Q15700
3.96: RADIL, Q96JH8
3.93: LIN7C, Q9NUP9
below the threshold: all other assays above
